Where no end group is shown, it is not given here. The star is where a group is joined. C16 diacid = O=C(O)CCCCCCCCCCCCCCC(=O)*
T1: human GIP receptor (human, UniProt P48546 22-466)
T1 sequence (looked up): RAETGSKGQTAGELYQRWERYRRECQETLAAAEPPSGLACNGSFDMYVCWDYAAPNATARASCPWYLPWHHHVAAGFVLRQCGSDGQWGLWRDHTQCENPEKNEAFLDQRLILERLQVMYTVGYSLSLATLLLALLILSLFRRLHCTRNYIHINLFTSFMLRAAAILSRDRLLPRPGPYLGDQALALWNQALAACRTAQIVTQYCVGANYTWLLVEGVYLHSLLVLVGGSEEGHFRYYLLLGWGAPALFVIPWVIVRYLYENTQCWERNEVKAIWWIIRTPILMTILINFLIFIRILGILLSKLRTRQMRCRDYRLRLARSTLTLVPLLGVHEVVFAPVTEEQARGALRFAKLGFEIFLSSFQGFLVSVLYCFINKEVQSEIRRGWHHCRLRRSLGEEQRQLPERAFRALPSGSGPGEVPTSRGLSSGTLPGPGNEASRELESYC

B1: AT620 (peptide)
peptide: EGTFISDYSIAEDKIK(C16 diacid)QQDFVNWLLAQKPSSGAPPPS-OH
modifications: N-terminus assumed
SMILES: CC[C@H](C)[C@H](NC(=O)[C@H](CO)NC(=O)[C@H](Cc1ccc(O)cc1)NC(=O)[C@H](CC(=O)O)NC(=O)[C@H](CO)NC(=O)[C@@H](NC(=O)[C@H](Cc1ccccc1)NC(=O)[C@@H](NC(=O)CNC(=O)[C@@H](N)CCC(=O)O)[C@@H](C)O)[C@@H](C)CC)C(=O)N[C@@H](C)C(=O)N[C@@H](CCC(=O)O)C(=O)N[C@@H](CC(=O)O)C(=O)N[C@@H](CCCCN)C(=O)N[C@H](C(=O)N[C@@H](CCCCNC(=O)CCCCCCCCCCCCCCC(=O)O)C(=O)N[C@@H](CCC(N)=O)C(=O)N[C@@H](CCC(N)=O)C(=O)N[C@@H](CC(=O)O)C(=O)N[C@@H](Cc1ccccc1)C(=O)N[C@H](C(=O)N[C@@H](CC(N)=O)C(=O)N[C@@H](Cc1c[nH]c2ccccc12)C(=O)N[C@@H](CC(C)C)C(=O)N[C@@H](CC(C)C)C(=O)N[C@@H](C)C(=O)N[C@@H](CCC(N)=O)C(=O)N[C@@H](CCCCN)C(=O)N1CCC[C@H]1C(=O)N[C@@H](CO)C(=O)N[C@@H](CO)C(=O)NCC(=O)N[C@@H](C)C(=O)N1CCC[C@H]1C(=O)N1CCC[C@H]1C(=O)N1CCC[C@H]1C(=O)N[C@@H](CO)C(=O)O)C(C)C)[C@@H](C)CC
B2: AT621 (peptide)
peptide: EGTFISDYSIAKDKIK(C16 diacid)QQDFVNWLLAQKPSSGAPPPS-OH
modifications: N-terminus assumed
SMILES: CC[C@H](C)[C@H](NC(=O)[C@H](CO)NC(=O)[C@H](Cc1ccc(O)cc1)NC(=O)[C@H](CC(=O)O)NC(=O)[C@H](CO)NC(=O)[C@@H](NC(=O)[C@H](Cc1ccccc1)NC(=O)[C@@H](NC(=O)CNC(=O)[C@@H](N)CCC(=O)O)[C@@H](C)O)[C@@H](C)CC)C(=O)N[C@@H](C)C(=O)N[C@@H](CCCCN)C(=O)N[C@@H](CC(=O)O)C(=O)N[C@@H](CCCCN)C(=O)N[C@H](C(=O)N[C@@H](CCCCNC(=O)CCCCCCCCCCCCCCC(=O)O)C(=O)N[C@@H](CCC(N)=O)C(=O)N[C@@H](CCC(N)=O)C(=O)N[C@@H](CC(=O)O)C(=O)N[C@@H](Cc1ccccc1)C(=O)N[C@H](C(=O)N[C@@H](CC(N)=O)C(=O)N[C@@H](Cc1c[nH]c2ccccc12)C(=O)N[C@@H](CC(C)C)C(=O)N[C@@H](CC(C)C)C(=O)N[C@@H](C)C(=O)N[C@@H](CCC(N)=O)C(=O)N[C@@H](CCCCN)C(=O)N1CCC[C@H]1C(=O)N[C@@H](CO)C(=O)N[C@@H](CO)C(=O)NCC(=O)N[C@@H](C)C(=O)N1CCC[C@H]1C(=O)N1CCC[C@H]1C(=O)N1CCC[C@H]1C(=O)N[C@@H](CO)C(=O)O)C(C)C)[C@@H](C)CC
B3: AT622 (peptide)
peptide: EGTFISDYSIASDKIK(C16 diacid)QQDFVNWLLAQKPSSGAPPPS-OH
modifications: N-terminus assumed
SMILES: CC[C@H](C)[C@H](NC(=O)[C@H](CO)NC(=O)[C@H](Cc1ccc(O)cc1)NC(=O)[C@H](CC(=O)O)NC(=O)[C@H](CO)NC(=O)[C@@H](NC(=O)[C@H](Cc1ccccc1)NC(=O)[C@@H](NC(=O)CNC(=O)[C@@H](N)CCC(=O)O)[C@@H](C)O)[C@@H](C)CC)C(=O)N[C@@H](C)C(=O)N[C@@H](CO)C(=O)N[C@@H](CC(=O)O)C(=O)N[C@@H](CCCCN)C(=O)N[C@H](C(=O)N[C@@H](CCCCNC(=O)CCCCCCCCCCCCCCC(=O)O)C(=O)N[C@@H](CCC(N)=O)C(=O)N[C@@H](CCC(N)=O)C(=O)N[C@@H](CC(=O)O)C(=O)N[C@@H](Cc1ccccc1)C(=O)N[C@H](C(=O)N[C@@H](CC(N)=O)C(=O)N[C@@H](Cc1c[nH]c2ccccc12)C(=O)N[C@@H](CC(C)C)C(=O)N[C@@H](CC(C)C)C(=O)N[C@@H](C)C(=O)N[C@@H](CCC(N)=O)C(=O)N[C@@H](CCCCN)C(=O)N1CCC[C@H]1C(=O)N[C@@H](CO)C(=O)N[C@@H](CO)C(=O)NCC(=O)N[C@@H](C)C(=O)N1CCC[C@H]1C(=O)N1CCC[C@H]1C(=O)N1CCC[C@H]1C(=O)N[C@@H](CO)C(=O)O)C(C)C)[C@@H](C)CC
B4: AT623 (peptide)
peptide: EGTFISDYSIAMDKIK(C16 diacid)QQDFVEWLLAQAPSSGAPPPS-OH
modifications: N-terminus assumed
SMILES: CC[C@H](C)[C@H](NC(=O)[C@H](CO)NC(=O)[C@H](Cc1ccc(O)cc1)NC(=O)[C@H](CC(=O)O)NC(=O)[C@H](CO)NC(=O)[C@@H](NC(=O)[C@H](Cc1ccccc1)NC(=O)[C@@H](NC(=O)CNC(=O)[C@@H](N)CCC(=O)O)[C@@H](C)O)[C@@H](C)CC)C(=O)N[C@@H](C)C(=O)N[C@@H](CCSC)C(=O)N[C@@H](CC(=O)O)C(=O)N[C@@H](CCCCN)C(=O)N[C@H](C(=O)N[C@@H](CCCCNC(=O)CCCCCCCCCCCCCCC(=O)O)C(=O)N[C@@H](CCC(N)=O)C(=O)N[C@@H](CCC(N)=O)C(=O)N[C@@H](CC(=O)O)C(=O)N[C@@H](Cc1ccccc1)C(=O)N[C@H](C(=O)N[C@@H](CCC(=O)O)C(=O)N[C@@H](Cc1c[nH]c2ccccc12)C(=O)N[C@@H](CC(C)C)C(=O)N[C@@H](CC(C)C)C(=O)N[C@@H](C)C(=O)N[C@@H](CCC(N)=O)C(=O)N[C@@H](C)C(=O)N1CCC[C@H]1C(=O)N[C@@H](CO)C(=O)N[C@@H](CO)C(=O)NCC(=O)N[C@@H](C)C(=O)N1CCC[C@H]1C(=O)N1CCC[C@H]1C(=O)N1CCC[C@H]1C(=O)N[C@@H](CO)C(=O)O)C(C)C)[C@@H](C)CC
B5: AT624 (peptide)
peptide: EGTFISDYSIAMDKIK(C16 diacid)QQDFVNWLEAQKPSSGAPPPS-OH
modifications: N-terminus assumed
SMILES: CC[C@H](C)[C@H](NC(=O)[C@H](CO)NC(=O)[C@H](Cc1ccc(O)cc1)NC(=O)[C@H](CC(=O)O)NC(=O)[C@H](CO)NC(=O)[C@@H](NC(=O)[C@H](Cc1ccccc1)NC(=O)[C@@H](NC(=O)CNC(=O)[C@@H](N)CCC(=O)O)[C@@H](C)O)[C@@H](C)CC)C(=O)N[C@@H](C)C(=O)N[C@@H](CCSC)C(=O)N[C@@H](CC(=O)O)C(=O)N[C@@H](CCCCN)C(=O)N[C@H](C(=O)N[C@@H](CCCCNC(=O)CCCCCCCCCCCCCCC(=O)O)C(=O)N[C@@H](CCC(N)=O)C(=O)N[C@@H](CCC(N)=O)C(=O)N[C@@H](CC(=O)O)C(=O)N[C@@H](Cc1ccccc1)C(=O)N[C@H](C(=O)N[C@@H](CC(N)=O)C(=O)N[C@@H](Cc1c[nH]c2ccccc12)C(=O)N[C@@H](CC(C)C)C(=O)N[C@@H](CCC(=O)O)C(=O)N[C@@H](C)C(=O)N[C@@H](CCC(N)=O)C(=O)N[C@@H](CCCCN)C(=O)N1CCC[C@H]1C(=O)N[C@@H](CO)C(=O)N[C@@H](CO)C(=O)NCC(=O)N[C@@H](C)C(=O)N1CCC[C@H]1C(=O)N1CCC[C@H]1C(=O)N1CCC[C@H]1C(=O)N[C@@H](CO)C(=O)O)C(C)C)[C@@H](C)CC
B6: AT625 (peptide)
peptide: EGTFISDYSIAMDKIK(C16 diacid)QQDFVNWLLEQKPSSGAPPPS-OH
modifications: N-terminus assumed
SMILES: CC[C@H](C)[C@H](NC(=O)[C@H](CO)NC(=O)[C@H](Cc1ccc(O)cc1)NC(=O)[C@H](CC(=O)O)NC(=O)[C@H](CO)NC(=O)[C@@H](NC(=O)[C@H](Cc1ccccc1)NC(=O)[C@@H](NC(=O)CNC(=O)[C@@H](N)CCC(=O)O)[C@@H](C)O)[C@@H](C)CC)C(=O)N[C@@H](C)C(=O)N[C@@H](CCSC)C(=O)N[C@@H](CC(=O)O)C(=O)N[C@@H](CCCCN)C(=O)N[C@H](C(=O)N[C@@H](CCCCNC(=O)CCCCCCCCCCCCCCC(=O)O)C(=O)N[C@@H](CCC(N)=O)C(=O)N[C@@H](CCC(N)=O)C(=O)N[C@@H](CC(=O)O)C(=O)N[C@@H](Cc1ccccc1)C(=O)N[C@H](C(=O)N[C@@H](CC(N)=O)C(=O)N[C@@H](Cc1c[nH]c2ccccc12)C(=O)N[C@@H](CC(C)C)C(=O)N[C@@H](CC(C)C)C(=O)N[C@@H](CCC(=O)O)C(=O)N[C@@H](CCC(N)=O)C(=O)N[C@@H](CCCCN)C(=O)N1CCC[C@H]1C(=O)N[C@@H](CO)C(=O)N[C@@H](CO)C(=O)NCC(=O)N[C@@H](C)C(=O)N1CCC[C@H]1C(=O)N1CCC[C@H]1C(=O)N1CCC[C@H]1C(=O)N[C@@H](CO)C(=O)O)C(C)C)[C@@H](C)CC

Each binder was assayed against T1, human GIP receptor (assay: cell-based or functional assay).
With B1 the “cAMP agonism % Emax” value was 0%, the “cAMP antagonism” value was 31.6 nM and the “cAMP antagonism % inhib” value was 83%. For the same binder, the “cAMP antagonism pIC50” value was 7.5.
For B2, the “cAMP agonism % Emax” value was 0%, the “cAMP antagonism” value was 1.36 nM and the “cAMP antagonism % inhib” value was 93%. For the same binder, the “cAMP antagonism pIC50” value was 8.9.
With B3 the “cAMP agonism % Emax” value was 14%, the “cAMP antagonism” value was 31.6 nM and the “cAMP antagonism % inhib” value was 77%. The “cAMP antagonism pIC50” value was 7.5.
For B4, the “cAMP agonism % Emax” value was 0%, the “cAMP antagonism” value was 3.16 nM and the “cAMP antagonism % inhib” value was 98%. The “cAMP antagonism pIC50” value was 8.5.
B5 was tested, and the “cAMP agonism % Emax” value was 0%, the “cAMP antagonism” value was 100 nM and the “cAMP antagonism % inhib” value was roughly 90%. For the same binder, the “cAMP antagonism pIC50” value was roughly 7.
In the case of B6, the “cAMP agonism % Emax” value is reported as 0%, the “cAMP antagonism” value is reported as 3.98 nM and the “cAMP antagonism % inhib” value is reported as 93%. The “cAMP antagonism pIC50” value was 8.4.

From patent publication US20220298218A1 (ANTAG THERAPEUTICS, published 2022)
